From patent US20100285015A1 (University of Pennsylvania, published 2010) come the findings set out here.

The assay concerns the target T1, mouse HMGB1 (produced in E. coli (Sigma)) (mouse, UniProt P63158 1-215, limits assumed).
T1 construct: Bought reagent; also called late cytokine (HMGB1); recombinant HMGB1
T1 sequence (looked up): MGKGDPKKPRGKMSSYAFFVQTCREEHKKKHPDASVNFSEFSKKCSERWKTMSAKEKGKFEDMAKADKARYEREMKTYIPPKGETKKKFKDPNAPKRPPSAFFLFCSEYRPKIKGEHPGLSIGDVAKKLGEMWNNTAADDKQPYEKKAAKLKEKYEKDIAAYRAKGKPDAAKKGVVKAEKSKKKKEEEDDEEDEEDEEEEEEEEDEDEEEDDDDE
Kind of assay: agglutination of Ter119-TM loaded mouse RBCs after HMGB1 and anti-HMGB1 antibody. As for the experimental part:
Mouse and human RBCs were washed in PBS/3% BSA buffer, resuspended in the same buffer to 10% hematocrit and incubated with Ter119-TM (final concentration […]) for 1 h. […] Then cells were washed 3 times with PBS/BSA buffer and equimolar amount of mouse HMGB1 (produced in E. coli (Sigma)) was added to the assay for 30 min at room temperature. Then RBC were washed with PBS/BSA and brought to the final hematocrit of 1% and the monoclonal Ab to mouse HMGB1 (Sigma, dilution as per manufacturer) was added to the assay placed into a V-shaped plate (total volume-100 μl).

B1: Ter119scFv-TM (thrombomodulin) fusion protein (other)
chain: RSPWPGVPTSQVKLQESGGGLVQPGGSLKLSCVASGFTFRDHWMNWVRQAPGKTMEWIGDIRPDGSDTNYAPSVRNRFTISRDNARSILYLQMSNMRSDYTATYYCVRDSPTRAGLMDAWGQGASVTVLTGGGGSGGGGSGGGGSDIQMIQSPSVLSASVGDRVTLNCKASQNINKYLNWYQQKLGEAPKVLIYNTNNLQTGIPSRFSGSGSGTDFTLTISSLQPEDFATYFCFQHYTWPTFGGGTKLELKRASSSSGSSSSGAAALSALAKLQPTGSQCVEHECFALFQGPATFLDASQACQRLQGHLMTVRSSVAADVISLLLSQSSMDLGPWIGLQLPQGCDDPVHLGPLRGFQWVTGDNHTSYSRWARPNDQTAPLCGPLCVTVSTATEAAPGEPAWEEKPCETETQGFLCEFYFTASCRPLTVNTRDPEAAHISSTYNTPFGVSGADFQTLPVGSSAAVEPLGLELVCRAPPGTSEGHWAWEATGAWNCSVENGGCEYLCNRSTNEPRCLCPRDMDLQADGRSCARPVVQSCNELCEHFCVSNAEVPGSYSCMCETGYQLAADGHRCEDVDDCKQGPNPCPQLCVNTKGGFECFCYDGYELVDGECVELLDPCFGSNCEFQCQPVSPTDYRCICAPGFAPKPDEPHKCEMFCNETSCPADCDPNSPTVCECPEGFILDEGSVCTDIDECSQGECFTSECRNFPGSYECICGPDTALAGQISKDCDPIPVREDTKEEEGSGEPPVSPTPGSPTGPPSARPVHSDYKDHDGDYKDHDIDYKDDDDK
notes: Expressed in Drosophila S2 cells from a pMT/BiP/V5-HisA plasmid; Some assays used it directly from S2 cell medium; also called Ter119-TM
With B1, the binding result is on record as “binds”.
